B1: α-1,2-mannosidase IC: Class I α-1,2-mannosidase from A. nidulans (mnsIC, SEQ ID NO: 18), expressed from vector ANICSEC (protein)
chain: MPRRWSSLISITAIFLVLFFLLHRNTDTPRAANRATNGPANGFARQQSICPSTPPQPPYNRTSTGGFNWGEIPVRYPVSDFIPLSTNSPATLPRIQRSSFPLQSSITKSRQAAVKGAFQRAWTSYTTHAWKADEVRPITAGSRNNFGGWGATLVDNLDTLLIMGLDEEFAAAVDALADIEFSPHSSPSSSQSTINIFETTIRYLGGLLAAYDLTGCRETRLLDKAIQLGEMIYTSFDTENRMPVPRWNLHKAGNGEPQRAAVQGVLAELASSSLEFTRLSQLTGDMRYFDAASRITDLLDSQAGHTRIPGLWPVSVNLQKGDLTRGSTFSFGGMADSAYEYLGKTYRLLGGVGKGPQYERLARNALDAGIRHLLFRPMTPDHADILLPGVAHATSSSVGLEPRTEHLACFVGGMYALAGKLFSNQTYLDTGRKLTDGCIWYYDNSPLGIMPEMFTVPACPSVAECPWDETRGGIYTYVRDGHYFLRPEAMESIFYMWRITGDEKYREAAWRMFTAIEAVTKTEFGNAAVRDVMVEEGNVKREDSMESFWMAETLKYLYLIFGETDLVSLDDWVFNTEAHPLRGAGS
modifications: Aspergillus nidulans
B2: α-1,2-mannosidase IB: Class I α-1,2-mannosidase from A. nidulans (mnsIB, SEQ ID NO: 6), expressed from vector ANIBSEC (protein)
chain: MRTLLALAAFAGFAAARVPATAITRPVMRSDSRADAVKEAFSHAWDGTTNTAFPHDELHPISNGTGDSRNHWGASAVDALSTAIMMRNATIVNQILDHIAAVDTSKTNAMVSLFETTIRTLAGMISGTDLLKGPAAGLVDDSRVDVLLEQSQNLAEVLKFAFDTPSGVPTNMINITSGGNDGATTNGLAVTGTLVLEWTRLSDLTGNDETARLSQRAEDTLLHPEPAQTEPFPGLIGSAVNIADGKLANGHISWNGGADSTTETLIKMTVTDPERFGLTRDRWVAAAESSINHLASHPSTRPDVTFLATTNEEHQLGLTSQHLTCFDGGSFLLGGTLLDRQDFVDFGLDLVAGCHETTNSTLTGIGPEQFSWDPNGVPDSQKELFERAGFTINSGQTILRPEVIESFTTAWRVTGDGTTLEWVWNAFTNINKTCRTATGFAGLENVNAANGGGRIDNQESFMFAEVLKTSFLTFAPEDDWQVQKGSGNTFVTNTEAHPFKVTTPQ
modifications: Aspergillus nidulans

How the values were obtained:
[1] = system: A. nidulans α-1,2-mannosidase IB; experiment: Effect of EDTA, calcium and deoxymannojirimycin on enzyme activity; format: biochemical, Aspergillus nidulans; details: for effect of addition on enzyme activity: added to purified α-1,2-mannosidase IB
Method: (§1) FIG. 8: Biochemical characterization of purified A. nidulans α-1,2-mannosidase IB (A) and α-1,2-mannosidase IC (B) enzymes. Enzyme activity was assayed by digestion of the synthetic substrate Man-α1,2-Man-OCH3 at 37 °C for 3 hours. Released mannose was detected using a colorimetric glucose oxidase/horseradish peroxidase assay (see Materials and Methods) and measuring absorbance at […].
(§2) The α-mannosidase IB and IC expression vectors were introduced into the genome of A. nidulans strain T580 (ura-) by cotransformation and complementation with the pJR15 vector, which contained the selectable ura marker. It has been shown that when two plasmids are used simultaneously in the transformation of fungal protoplasts (cotransformation), as many as 60% of transformed protoplasts will integrate both of the plasmids into the genome (Wernars et al. 1987, Mol. Gen. Genet., 209: 71-77). Protoplasts were prepared according to the method of Fincham (1989, Microbiol. Rev., 53: 148-170), using Sigma Lysing Enzyme for cell wall digestion. Protoplasts of strain T580 (uridine auxotroph) were co-transformed with 1 μg of the selectable marker pJR15, which converts transformed cells to uridine prototrophy, and with 1 μg of either ANIBSEC or ANICSEC. Transformants were initially screened for integration of […] by selection on minimal media, and positive transformants were then transferred to individual complete media plates. Transformants were selected for prototrophy on uridine deficient minimal media and transferred to complete media plates. To confirm secretion of active recombinant α-1,2-mannosidase IB or IC into the culture media of putative transformants, specific activity assays were performed. After 60-65 hours of incubation, aliquots of culture media were assayed for α-1,2-mannosidase activity and compared to the non-transformed T580 strain. Total culture filtrate protein was precipitated and resuspended in assay buffer. Mannosidase assays were performed using the disaccharide Man-α-1,2-Man-OCH3 as a substrate in a coupled enzyme assay as described earlier (Scaman et al. 1996, Glycobiol., 6: 265-270), with some modifications. Digestion of the substrate was performed in a 30 μl final volume containing 10 mM sodium acetate/acetic acid buffer (pH 5.0) and 3 μl 100 mM disaccharide Man-α-1,2-Man-OCH3 incubated at 37° C. for 3 hours. Released mannose was detected by addition of 30 μl 1.25M Tris-HCl (pH7.6) and 240 μl of developing solution, containing glucose oxidase (55 U/ml), horseradish peroxidase (1 U/ml) and o-dianisidine dihydrochloride (70 μg/ml) followed by incubation at 37° C. for 3 hours. Absorbance measurements at 450 nm were used to determine final color change. A standard curve of free mannose concentrations was determined for comparison.

[2] = system: A. nidulans α-1,2-mannosidase IC; experiment: as above; format: biochemical, Aspergillus nidulans; details: for effect of addition on enzyme activity: added to purified α-1,2-mannosidase IC
Method: as §1, §2

[3] = α-1,2-mannosidase specific activity assay of secreted recombinant enzymes (coupled enzyme assay); format: biochemical; details: purified enzyme; for optimal pH for highest activity: FIG. 8; for specific activity: non-limiting amounts of Man-α-1,2-Man-OCH3, 1 U = 1 nmol mannose per hour
Method: as §1
as §2, with “Digestion of the substrate was performed in a 30 μl final volume containing 10 mM sodium acetate/acetic acid buffer (pH 5.0) and 3 μl 100 mM disaccharide Man-α-1,2-Man-OCH3 incubated at 37° C. for 3 hours.” left out, “comparison. […] Protein concentrations were determined by the Bradford method (Bradford 1976, Anal. Biochem., 72: 248-254) and comparison to a bovine serum albumin (BSA) standard curve. […]” for “comparison.”

[4] = Digestion of Man9GlcNAc2, cleavage products by MALDI-TOF mass spectrometry; format: biochemical; details: for cleavage of Man9GlcNAc2 (substrate specificity): non-limiting conditions, about 100 ng enzyme, 10 pmol Man9GlcNAc2
Method: FIG. 9: Partial digestion of Man9GlcNAc2 (M9) with A. nidulans α-1,2-mannosidase IB (A) and A. nidulans α-1,2-mannosidase IC (B) by MALDI-TOF mass spectrometry. Peaks represent parent molecules ionized with sodium (M+Na+). Several different digestion products are produced in each reaction, including Man8GlcNAc2 (M8), Man7GlcNAc2 (M7), Man6GlcNAc2 (M6) and Man5GlcNAc2 (M5).
The substrate specificity of the α-1,2-mannosidase IB and IC from A. nidulans was determined by analyzing the cleavage products of Man9GlcNAc2 by MALDI-TOF mass spectrometry. Approximately 100 ng of either α-1,2-mannosidase IB or IC protein was used to digest 10 pmol of Man9GlcNAc2 (Sigma) in a final volume of 10 μl. Digestion products were analyzed by matrix assisted laser desorption ionization time of flight mass spectrometry (MALDI-TOF-MS) using a Voyager biospectrometry workstation (Applied Biosystems, Foster City Calif.). Samples were mixed in a 1:1 ratio with the matrix (10 mg/ml 2,5-dihydroxybenzoic acid; 50% acetonitrile) and 1 μl was loaded onto a sample plate for analysis. […] Accelerating voltage was 20000V and the grid voltage was set at 94%. Data were analyzed using Data Explorer software (Applied Biosystems, Foster City Calif.). […] This supports the classification of both the α-1,2-mannosidase IB and IC in subgroup 2.
The rate at which various intermediates were produced during the digestion of Man9GlcNAc2 to Man5GlcNAc2 was determined by analyzing the cleavage products during limited time-course experiments (FIG. 9). […] This led to the accumulation of Man7GlcNAc2 and Man6GlcNAc2 intermediates during the progress of the digestion, which were eventually converted to Man5GlcNAc2.

[5] = limited time-course experiments, FIG. 9

Molecule	effect of addition on enzyme activity [1]	effect of addition on enzyme activity [2]	optimal pH for highest activity [3]	specific activity [3]	rate of digestion of Man9GlcNAc2 to intermediates [4, 5]	cleavage of Man9GlcNAc2 (substrate specificity) [4]	other results
[Ca+2] [calcium]	–	–	–	–	–	–	effect of addition on EDTA-reduced enzyme activity ([1]; added after EDTA, α-1,2-mannosidase IB): restored; effect of addition on EDTA-reduced enzyme activity ([2]; added after EDTA, α-1,2-mannosidase IC): restored
O=C(O)CN(CCN(CC(=O)O)CC(=O)O)CC(=O)O [EDTA]	significantly reduced enzyme activity	significantly reduced enzyme activity	–	–	–	–	–
OC[C@H]1NC[C@@H](O)[C@@H](O)[C@@H]1O [deoxymannojirimycin]	significant decrease in activity	significant decrease in activity	–	–	–	–	–
B1	–	–	5.0	4.56 U/µg	rapidly degraded Man9GlcNAc2 to Man7GlcNAc2	cleaved Man9GlcNAc2 completely and efficiently to a Man5GlcNAc2 structure	rate of conversion of Man7GlcNAc2 and Man6GlcNAc2 intermediates to Man5GlcNAc2 [4, 5]: more rapidly than the α-1,2-mannosidase IB enzyme
B2	–	–	5.0	7.52 U/μg	rapidly degraded Man9GlcNAc2 to Man7GlcNAc2	cleaved Man9GlcNAc2 completely and efficiently to a Man5GlcNAc2 structure	–

Reference: patent US20050260627A1, “Mannosidases and methods for using same” (University of Victoria Innovation and Development …, priority 1999, published 2005)
